Test results: publication PMC4618692, “Crystal Structure and Identification of Two Key Amino Acids Involved in AI-2 Production and Biofilm Formation in Streptococcus suis LuxS” (PLoS ONE, 2015)

Target: the molecule itself
Test: SEC; size exclusion chromatography of purified LuxS (Superdex 200 named in the purification); data not shown

B1: S-ribosylhomocysteinase (LuxS) from Streptococcus suis strain HA9801 (enzyme, UniProt A4VTE8 1-160, looked up)
chain: MKKEVTVESFELDHTIVKAPYIRLISEEVGPKGDIITNFDIRLIQPNENAMDTAGLHTIEHLLAKLIRQRIDGLIDCSPFGCRTGFHMIMWGKQDSEKIAQVIKSSLEEIAEGITWEDVPGTTIESCGNYKDHSLHSAKEWAKLILSQGISTDAFERKPI
notes: also called S. suis LuxS; SS LuxS protein; source: E. coli BL21 (DE3), pET28-luxS, purified (HisTrap column, Superdex 200 size-exclusion chromatography)
stoichiometry N: 2
